The target in experiment [1] is HER3-His ECD (human). The experiment can be described thus: ELISA. For orientation: An ELISA detects its analyte on a solid surface through an enzyme-linked reagent.
Experiment [2] addresses HER3 (cell surface) (human). The experiment can be described thus: FACS, SKBR-3 (EGFR and HER3 positive). For orientation: In flow cytometry, cells or beads pass a laser one at a time.
Experiment [3] has as its target HER3 (cell surface) (human). The experiment can be described thus: FACS, MCF-7.

For orientation: EC50 means the midpoint of the concentration-response curve. Higher therefore signals lower potency in that assay.

B1: Db3-43xhu225-Ig, HER3 arm (antibody, V domains shown)
VH: QVQLQQSGPGLVKPSQTLSLTCAISGDSVSSNRAAWNWIRQSPSRGLEWLGRTYYRSKWYNDYAQSLKSRITINPDTPKNQFSLQLNSVTPEDTAVYYCARDGQLGLDALDIWGQGTMVTVSS
VL: QAGLTQPPAVSVAPGQTASITCGRDNIGSRSVHWYQQKPGQAPVLVVYDDSDRPAGIPERFSGSNYENTATLTISRVEAGDEADYYCQVWGITSDHVVFGGGTKLTVLG
Consider B1, for which the results for the EC50 in experiment [1], in experiment [2] and in experiment [3] were 0.26 nM, 0.047 nM and 0.054 nM, respectively.

For the origin of these results see patent publication US11008402 (dated 2021).
